Literature values in PMC7866529.
Where two headings read alike, the source gives them in different places.

Experiments:
S100B (Homo sapiens) [1] = target: S100B (Homo sapiens) (UniProt P04271)
S100B (Homo sapiens) [2] = target: S100B (Homo sapiens) (UniProt P04271); remark: listed apart in the source

Kd (S100B (Homo sapiens) [1]) [nM]	Kd (S100B (Homo sapiens) [2]) [nM]	Substance
260		TRTK12
	< 0.5	S100B (from UniProt P04271)
